{"source": "patent US20240116985A1", "about": "(published 2024)", "note": "Starred links: 1 amine or outer side, 2 acyl side, 3 side chain; linkers in the order of their positions; H or OH if unused. Positions of bridges follow the written chain, without caps; N, C: chain ends. Non-standard residues stand in square brackets, D forms with d. Primed or numbered codes have the meaning given here. ξ: configuration not given here. PyrS2″ = (S)-3-amino-1-((pent-4-en-1-yloxy)carbonyl)pyrrolidine-3-carboxylic acid (stapling residue), C=CCCCOC(=O)N1CC[C@@](N[*:1])(C(=O)[*:2])C1; B5(4) = 2,2-bis(4-pentenyl)glycine = 2-amino-2-(pent-4-en-1-yl)hept-6-enoic acid (stitching residue), C=CCCCC(CCCC=C)(N[*:1])C(=O)[*:2]; TfeGA = (S)-2-amino-3-((carboxymethyl)(2,2,2-trifluoroethyl)amino)propanoic acid, O=C([C@H](CN(CC(=O)[*:3])CC(F)(F)F)N[*:1])[*:2]; PyrS2 = (S)-3-amino-1-((pent-4-en-1-yloxy)carbonyl)pyrrolidine-3-carboxylic acid, C=CCCCOC(=O)N1CC[C@@](N[*:1])(C(=O)[*:2])C1; PyrS3 = (S)-3-amino-1-((hex-5-en-1-yloxy)carbonyl)pyrrolidine-3-carboxylic acid, C=CCCCCOC(=O)N1CC[C@@](N[*:1])(C(=O)[*:2])C1; B5(7) = 2-amino-2-(pent-4-en-1-yl)hept-6-enoic acid, two olefinic side chains, C=CCCCC(CCCC=C)(N[*:1])C(=O)[*:2]; Phe(2-Cl) = N[C@@H](Cc1ccccc1Cl)C(=O)O; Bta = N[C@@H](Cc1csc2ccccc12)C(=O)O; αAllylPro = C=CC[C@@]1(C(=O)O)CCCN1; tBuAla = CC(C)(C)C[C@H](N)C(=O)O; 3Thi = N[C@@H](Cc1ccsc1)C(=O)O; Cha = N[C@@H](CC1CCCCC1)C(=O)O; ξβ3hD = NC(CC(=O)O)CC(=O)O; Aib = CC(C)(N)C(=O)O", "data": [{"biological_target": "T1, B-cat-Halo (NanoBRET construct expressed in HEK293 cells) (UniProt P35222 1-781, HaloTag NanoBRET 618 Ligand bound in the assay)", "T1 sequence (looked up)": "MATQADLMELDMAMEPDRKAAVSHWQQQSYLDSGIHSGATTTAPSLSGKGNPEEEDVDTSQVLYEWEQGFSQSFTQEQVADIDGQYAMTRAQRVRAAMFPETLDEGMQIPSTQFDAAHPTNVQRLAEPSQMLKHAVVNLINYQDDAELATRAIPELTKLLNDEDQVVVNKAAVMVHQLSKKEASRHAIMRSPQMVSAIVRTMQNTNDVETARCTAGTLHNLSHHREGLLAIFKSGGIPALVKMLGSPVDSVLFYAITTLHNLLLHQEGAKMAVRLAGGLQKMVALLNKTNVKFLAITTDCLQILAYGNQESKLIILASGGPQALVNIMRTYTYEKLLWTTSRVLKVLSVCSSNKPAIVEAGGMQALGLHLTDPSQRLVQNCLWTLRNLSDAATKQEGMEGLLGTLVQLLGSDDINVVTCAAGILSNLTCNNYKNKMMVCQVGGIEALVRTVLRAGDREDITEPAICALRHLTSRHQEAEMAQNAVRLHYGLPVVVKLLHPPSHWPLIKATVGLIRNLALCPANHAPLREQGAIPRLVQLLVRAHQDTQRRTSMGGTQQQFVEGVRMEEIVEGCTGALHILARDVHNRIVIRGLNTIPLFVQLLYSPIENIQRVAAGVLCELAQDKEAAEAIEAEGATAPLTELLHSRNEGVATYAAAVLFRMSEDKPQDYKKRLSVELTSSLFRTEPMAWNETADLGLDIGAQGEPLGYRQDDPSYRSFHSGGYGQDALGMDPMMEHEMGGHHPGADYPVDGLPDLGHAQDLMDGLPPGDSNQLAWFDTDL", "assay": "cell-based or functional assay", "units": {"NanoBRET Abs IC50": "µM"}, "values": [{"binder": "Ac-[αAllylPro]D[tBuAla][B5(7)]DDAAFN[PyrS3][3Thi][Bta]Q-NH2 (staple 1-4, 4-11)", "note": "[I-768]", "NanoBRET Abs IC50": 31.4}, {"binder": "Ac-[αAllylPro]D[tBuAla][B5(7)]D[TfeGA]AAFN[PyrS2][3Thi][Bta]H-NH2 (staple 1-4, 4-11)", "note": "[I-769]", "NanoBRET Abs IC50": 13}, {"binder": "Ac-[αAllylPro]D[tBuAla][B5(7)]D[TfeGA]AAFN[PyrS2][3Thi][Bta]H-NH2 (staple 1-4, 4-11)", "note": "[I-770]", "NanoBRET Abs IC50": 13.7}, {"binder": "Ac-[αAllylPro]D[tBuAla][B5(7)]DDAAFQ[PyrS2][3Thi][Bta]H-NH2 (staple 1-4, 4-11)", "note": "[I-771]", "NanoBRET Abs IC50": 37.3}, {"binder": "Ac-[αAllylPro]D[tBuAla][B5(7)]DDAAFQ[PyrS2][3Thi][Bta]H-NH2 (staple 1-4, 4-11)", "note": "[I-772]", "NanoBRET Abs IC50": "> 20"}]}, {"biological_target": "T2, B-cat-Halo (UniProt P35222 1-781)", "T2 sequence (looked up)": "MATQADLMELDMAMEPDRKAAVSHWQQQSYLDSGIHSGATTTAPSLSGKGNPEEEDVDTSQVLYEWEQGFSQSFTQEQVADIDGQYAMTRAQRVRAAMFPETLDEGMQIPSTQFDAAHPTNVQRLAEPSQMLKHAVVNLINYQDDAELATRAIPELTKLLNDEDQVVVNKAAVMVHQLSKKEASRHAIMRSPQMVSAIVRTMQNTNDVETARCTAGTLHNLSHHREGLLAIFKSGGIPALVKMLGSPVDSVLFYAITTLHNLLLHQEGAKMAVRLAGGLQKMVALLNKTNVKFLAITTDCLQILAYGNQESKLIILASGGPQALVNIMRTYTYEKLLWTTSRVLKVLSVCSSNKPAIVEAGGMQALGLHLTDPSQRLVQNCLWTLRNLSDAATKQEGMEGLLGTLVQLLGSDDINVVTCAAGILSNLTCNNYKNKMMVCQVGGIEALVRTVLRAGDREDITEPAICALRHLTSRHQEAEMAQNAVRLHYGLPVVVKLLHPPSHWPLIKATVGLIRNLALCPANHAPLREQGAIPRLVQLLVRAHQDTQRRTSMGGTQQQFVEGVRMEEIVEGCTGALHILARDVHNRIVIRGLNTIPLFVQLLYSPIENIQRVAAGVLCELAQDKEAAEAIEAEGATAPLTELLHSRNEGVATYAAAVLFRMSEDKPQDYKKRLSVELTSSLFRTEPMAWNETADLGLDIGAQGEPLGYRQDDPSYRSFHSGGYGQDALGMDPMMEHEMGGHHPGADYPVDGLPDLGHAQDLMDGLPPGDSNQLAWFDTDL", "assay": "cell-based or functional assay", "units": {"NanoBRET Abs IC50": "µM"}, "values": [{"binder": "Ac-[αAllylPro][ξβ3hD][tBuAla][B5(4)]D[TfeGA]AAFN[PyrS2″][3Thi][Bta]Q-NH2 (staple 1-4, 4-11)", "note": "[I-1161]", "NanoBRET Abs IC50": "> 20"}, {"binder": "Ac-[αAllylPro]D[tBuAla][B5(4)]DTAAFT[PyrS2″][3Thi][Bta]Q-NH2 (staple 1-4, 4-11)", "note": "[I-1166]", "NanoBRET Abs IC50": 14.6}, {"binder": "Ac-[αAllylPro]D[tBuAla][B5(4)]DTAAFL[PyrS2″][3Thi][Bta]Q-NH2 (staple 1-4, 4-11)", "note": "[I-1167]", "NanoBRET Abs IC50": 11.7}, {"binder": "Ac-[αAllylPro]D[tBuAla][B5(4)]DTAAFT[PyrS2″][Phe(2-Cl)][Bta]Q-NH2 (staple 1-4, 4-11)", "note": "[I-1168]", "NanoBRET Abs IC50": 31.4}, {"binder": "Ac-[αAllylPro]D[tBuAla][B5(4)]DTAAFT[PyrS2″][3Thi][Bta]S-NH2 (staple 1-4, 4-11)", "note": "[I-1170]", "NanoBRET Abs IC50": 13.5}, {"binder": "Ac-[αAllylPro]D[tBuAla][B5(4)]DTAAFL[PyrS2″][3Thi][Bta]S-NH2 (staple 1-4, 4-11)", "note": "[I-1171]", "NanoBRET Abs IC50": 28.8}, {"binder": "Ac-[αAllylPro]D[tBuAla][B5(4)]DTAAFL[PyrS2″][Phe(2-Cl)][Bta]S-NH2 (staple 1-4, 4-11)", "note": "[I-1172]", "NanoBRET Abs IC50": 19.4}, {"binder": "Ac-[αAllylPro]D[Cha][B5(4)]DTAAFT[PyrS2″][3Thi][Bta]Q-NH2 (staple 1-4, 4-11)", "note": "[I-1173]", "NanoBRET Abs IC50": 17.2}, {"binder": "Ac-[αAllylPro]D[Cha][B5(4)]DTAAFL[PyrS2″][3Thi][Bta]Q-NH2 (staple 1-4, 4-11)", "note": "[I-1174]", "NanoBRET Abs IC50": 32.6}, {"binder": "Ac-[αAllylPro]D[Cha][B5(4)]DTAAFT[PyrS2″][Phe(2-Cl)][Bta]Q-NH2 (staple 1-4, 4-11)", "note": "[I-1175]", "NanoBRET Abs IC50": 27.3}, {"binder": "Ac-[αAllylPro]D[tBuAla][B5(4)]DD[Aib]AFL[PyrS2″][3Thi][Bta]Q-NH2 (staple 1-4, 4-11)", "note": "[I-1177]", "NanoBRET Abs IC50": 4.3}, {"binder": "Ac-[αAllylPro]D[tBuAla][B5(4)]DDA[Aib]FL[PyrS2″][3Thi][Bta]Q-NH2 (staple 1-4, 4-11)", "note": "[I-1178]", "NanoBRET Abs IC50": 28.8}]}]}
